Common to all, as to assay type: binding
The nature of assay [1]: Probe fluorescence ratio response to palmitic acid relative to ADIFAB2. The following applies: response relative to ADIFAB2. The essentials:
(§1)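 Fluorescently labeled rat intestinal FABP variants were read at two emission wavelengths, near the unbound maximum (about 420 to 480 nm) and the FFA-bound maximum (about 495 to 580 nm). R = Fλ1/Fλ2 after subtracting probe-free intensity; ΔR = R+agent − R0, normalized to ADIFAB2 (rI-FABP-L72A).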

Assay [2] is described as follows: Probe fluorescence ratio response to linoleic acid relative to ADIFAB2. To be noted: response relative to ADIFAB2. The essentials:
as §1

Assay [3] can be described thus: Probe fluorescence ratio response to linolenic acid relative to ADIFAB2. The following applies: response relative to ADIFAB2. Summed up: as §1
Assay [4] is described as follows: Probe fluorescence ratio response to oleic acid relative to ADIFAB2. To be noted: response relative to ADIFAB2. Summed up:
as §1

Assay [5] is described as follows: Probe fluorescence ratio response to arachidonic acid relative to ADIFAB2. The following applies: arachidonic acid; response relative to ADIFAB2. Summed up:
as §1

Values joined by “and” are separate entries in the source; they are usually repeats but may differ in a detail not shown here. Equal values may be shown once.

B1: 102K, 72A (protein, listed as Rattus norvegicus)
chain: AFDGTWKVDRNENYEKFMEKMGINVVKRKLGAHDNLKLTITQEGNKFTVKESSNFRNIDVVFELGVDFAYSAADGTELTGTWTMEGNKLVGKFKRVDNGKEKIAVREISGNELIQTYTYEGVEAKRIFKKE
modifications: PEPTIDE (1)...(131) wild-type rat intestinal fatty acid binding protein
With B1, the “DR/DR PA” value in assay [1] worked out at 0.23. In assay [2], the “DR/DR LA” value stood at 0.55. In addition, the “DR/DR LNA” value in assay [3] was 0.51. In addition, in assay [4], the “DR/DR OA” value stood at 0.48. For the same molecule, the “DR/DR AA” value in assay [5] was determined as 0.47.

B2: 14W, 72A (protein, listed as Rattus norvegicus)
chain: AFDGTWKVDRNENWEKFMEKMGINVVKRKLGAHDNLKLTITQEGNKFTVKESSNFRNIDVVFELGVDFAYSAADGTELTGTWTMEGNKLVGKFKRVDNGKELIAVREISGNELIQTYTYEGVEAKRIFKKE
modifications: PEPTIDE (1)...(131) wild-type rat intestinal fatty acid binding protein
For the molecule B2, the “DR/DR PA” value in assay [1] came to 0.23. In addition, in assay [2], the “DR/DR LA” value came out at 0.33. Further, the “DR/DR LNA” value in assay [3] is reported as 0.31. For the same molecule, the “DR/DR OA” value in assay [4] was found to be 0.26. In addition, in assay [5], the “DR/DR AA” value is 0.30.

B3: 14S, 72A (protein, listed as Rattus norvegicus)
chain: AFDGTWKVDRNENSEKFMEKMGINVVKRKLGAHDNLKLTITQEGNKFTVKESSNFRNIDVVFELGVDFAYSAADGTELTGTWTMEGNKLVGKFKRVDNGKELIAVREISGNELIQTYTYEGVEAKRIFKKE
modifications: PEPTIDE (1)...(131) wild-type rat intestinal fatty acid binding protein
B3: in assay [1], the “DR/DR PA” value is given as 0.27. For the same molecule, the “DR/DR LA” value in assay [2] was 0.53. For the same molecule, the “DR/DR LNA” value in assay [3] was determined as 0.53. For the same molecule, the “DR/DR OA” value in assay [4] is reported as 0.33. Also, the “DR/DR AA” value in assay [5] is reported as 0.46.

B4: 14R, 72A (protein, listed as Rattus norvegicus)
chain: AFDGTWKVDRNENREKFMEKMGINVVKRKLGAHDNLKLTITQEGNKFTVKESSNFRNIDVVFELGVDFAYSAADGTELTGTWTMEGNKLVGKFKRVDNGKELIAVREISGNELIQTYTYEGVEAKRIFKKE
modifications: PEPTIDE (1)...(131) wild-type rat intestinal fatty acid binding protein
With B4, in assay [1], the “DR/DR PA” value is 0.26. Besides, the “DR/DR LA” value in assay [2] is 0.56. Moreover, the “DR/DR LNA” value in assay [3] amounted to 0.51. Further, the “DR/DR OA” value in assay [4] is on record as 0.26. Besides, the “DR/DR AA” value in assay [5] is listed as 0.49.

B5: 17C, 72A (protein, listed as Rattus norvegicus)
chain: AFDGTWKVDRNENYEKCMEKMGINVVKRKLGAHDNLKLTITQEGNKFTVKESSNFRNIDVVFELGVDFAYSAADGTELTGTWTMEGNKLVGKFKRVDNGKELIAVREISGNELIQTYTYEGVEAKRIFKKE
modifications: PEPTIDE (1)...(131) wild-type rat intestinal fatty acid binding protein
Take B5: the “DR/DR PA” value in assay [1] came out at 0.10. In addition, in assay [2], the “DR/DR LA” value is recorded as 0.25. For the same molecule, in assay [3], the “DR/DR LNA” value was 0.26. For the same molecule, the “DR/DR OA” value in assay [4] turned out to be 0.31. In addition, the “DR/DR AA” value in assay [5] is given as 0.15.

B6: 17A, 72A (protein, listed as Rattus norvegicus)
chain: AFDGTWKVDRNENYEKAMEKMGINVVKRKLGAHDNLKLTITQEGNKFTVKESSNFRNIDVVFELGVDFAYSAADGTELTGTWTMEGNKLVGKFKRVDNGKELIAVREISGNELIQTYTYEGVEAKRIFKKE
modifications: PEPTIDE (1)...(131) wild-type rat intestinal fatty acid binding protein
With B6, the “DR/DR PA” value in assay [1] came to 0.24. The “DR/DR LA” value in assay [2] was 0.56. Further, the “DR/DR LNA” value in assay [3] amounted to 0.97. Moreover, the “DR/DR OA” value in assay [4] came to 0.38. In addition, in assay [5], the “DR/DR AA” value is given as 0.53.

B7: 17E, 72A (protein, listed as Rattus norvegicus)
chain: AFDGTWKVDRNENYEKEMEKMGINVVKRKLGAHDNLKLTITQEGNKFTVKESSNFRNIDVVFELGVDFAYSAADGTELTGTWTMEGNKLVGKFKRVDNGKELIAVREISGNELIQTYTYEGVEAKRIFKKE
modifications: PEPTIDE (1)...(131) wild-type rat intestinal fatty acid binding protein
Take B7: the “DR/DR PA” value in assay [1] was 0.53. Besides, in assay [2], the “DR/DR LA” value turned out to be 0.90. In assay [3], the “DR/DR LNA” value is given as 0.88. The “DR/DR OA” value in assay [4] worked out at 0.84. The “DR/DR AA” value in assay [5] stood at 0.80.

B8: 17F, 72A (protein, listed as Rattus norvegicus)
chain: AFDGTWKVDRNENYEKFMEKMGINVVKRKLGAHDNLKLTITQEGNKFTVKESSNFRNIDVVFELGVDFAYSAADGTELTGTWTMEGNKLVGKFKRVDNGKELIAVREISGNELIQTYTYEGVEAKRIFKKE
modifications: PEPTIDE (1)...(131) wild-type rat intestinal fatty acid binding protein
Regarding B8, the “DR/DR PA” value in assay [1] is recorded as 1.14. Moreover, the “DR/DR LA” value in assay [2] was found to be 1.35. In addition, the “DR/DR LNA” value in assay [3] was found to be 1.38. For the same molecule, the “DR/DR OA” value in assay [4] is reported as 1.42. For the same molecule, in assay [5], the “DR/DR AA” value is 1.37.

B9: 17G, 72A (protein, listed as Rattus norvegicus)
chain: AFDGTWKVDRNENYEKGMEKMGINVVKRKLGAHDNLKLTITQEGNKFTVKESSNFRNIDVVFELGVDFAYSAADGTELTGTWTMEGNKLVGKFKRVDNGKELIAVREISGNELIQTYTYEGVEAKRIFKKE
modifications: PEPTIDE (1)...(131) wild-type rat intestinal fatty acid binding protein
With B9, the “DR/DR PA” value in assay [1] came to 0.28. For the same molecule, in assay [2], the “DR/DR LA” value came to 0.58. Moreover, the “DR/DR LNA” value in assay [3] is 0.62. Besides, the “DR/DR OA” value in assay [4] is on record as 0.52. Besides, the “DR/DR AA” value in assay [5] came out at 0.48.

B10: 17I, 72A (protein, listed as Rattus norvegicus)
chain: AFDGTWKVDRNENYEKIMEKMGINVVKRKLGAHDNLKLTITQEGNKFTVKESSNFRNIDVVFELGVDFAYSAADGTELTGTWTMEGNKLVGKFKRVDNGKELIAVREISGNELIQTYTYEGVEAKRIFKKE
modifications: PEPTIDE (1)...(131) wild-type rat intestinal fatty acid binding protein
Turning to B10, the “DR/DR PA” value in assay [1] is 0.28 and 0.283. The “DR/DR LA” value in assay [2] is 0.50 and 0.499. For the same molecule, the “DR/DR LNA” value in assay [3] is 0.54 and 0.541. For the same molecule, the “DR/DR OA” value in assay [4] is 0.62 and 0.624. Also, the “DR/DR AA” value in assay [5] was found to be 0.64.

B11: 14V, 72A (protein, listed as Rattus norvegicus)
chain: AFDGTWKVDRNENVEKFMEKMGINVVKRKLGAHDNLKLTITQEGNKFTVKESSNFRNIDVVFELGVDFAYSAADGTELTGTWTMEGNKLVGKFKRVDNGKELIAVREISGNELIQTYTYEGVEAKRIFKKE
modifications: PEPTIDE (1)...(131) wild-type rat intestinal fatty acid binding protein
As to B11, the “DR/DR PA” value in assay [1] turned out to be 0.43. The “DR/DR LA” value in assay [2] is 0.84 and 0.836. Moreover, the “DR/DR LNA” value in assay [3] is 0.87 and 0.868. Moreover, the “DR/DR OA” value in assay [4] was 0.51 and 0.513. For the same molecule, the “DR/DR AA” value in assay [5] is 0.76 and 0.756.

B12: 14T, 72A (protein, listed as Rattus norvegicus)
chain: AFDGTWKVDRNENTEKFMEKMGINVVKRKLGAHDNLKLTITQEGNKFTVKESSNFRNIDVVFELGVDFAYSAADGTELTGTWTMEGNKLVGKFKRVDNGKELIAVREISGNELIQTYTYEGVEAKRIFKKE
modifications: PEPTIDE (1)...(131) wild-type rat intestinal fatty acid binding protein
Consider B12, for which the “DR/DR PA” value in assay [1] was found to be 0.36. For the same molecule, the “DR/DR LA” value in assay [2] was 0.76. In assay [3], the “DR/DR LNA” value came to 1.15. Moreover, the “DR/DR OA” value in assay [4] turned out to be 0.56. In addition, the “DR/DR AA” value in assay [5] was found to be 0.64.

B13: 102L, 72A (protein, listed as Rattus norvegicus)
chain: AFDGTWKVDRNENYEKFMEKMGINVVKRKLGAHDNLKLTITQEGNKFTVKESSNFRNIDVVFELGVDFAYSAADGTELTGTWTMEGNKLVGKFKRVDNGKELIAVREISGNELIQTYTYEGVEAKRIFKKE
modifications: PEPTIDE (1)...(131) wild-type rat intestinal fatty acid binding protein
As to B13, the “DR/DR PA” value in assay [1] is 0.97 and 1.012. In assay [2], the “DR/DR LA” value is 1.40 and 1.267. The “DR/DR LNA” value in assay [3] is 1.41 and 1.284. The “DR/DR OA” value in assay [4] is 1.40 and 1.366. In assay [5], the “DR/DR AA” value was 1.25 and 1.103.

B14: 17H, 72A (protein, listed as Rattus norvegicus)
chain: AFDGTWKVDRNENYEKHMEKMGINVVKRKLGAHDNLKLTITQEGNKFTVKESSNFRNIDVVFELGVDFAYSAADGTELTGTWTMEGNKLVGKFKRVDNGKELIAVREISGNELIQTYTYEGVEAKRIFKKE
modifications: PEPTIDE (1)...(131) wild-type rat intestinal fatty acid binding protein
For the molecule B14, the “DR/DR PA” value in assay [1] is reported as 0.22. Further, in assay [2], the “DR/DR LA” value is recorded as 0.48. Further, the “DR/DR LNA” value in assay [3] worked out at 0.50. Further, the “DR/DR OA” value in assay [4] is on record as 0.40. Besides, the “DR/DR AA” value in assay [5] is listed as 0.52.

B15: 17D, 72A (protein, listed as Rattus norvegicus)
chain: AFDGTWKVDRNENYEKDMEKMGINVVKRKLGAHDNLKLTITQEGNKFTVKESSNFRNIDVVFELGVDFAYSAADGTELTGTWTMEGNKLVGKFKRVDNGKELIAVREISGNELIQTYTYEGVEAKRIFKKE
modifications: PEPTIDE (1)...(131) wild-type rat intestinal fatty acid binding protein
In the case of B15, the “DR/DR PA” value in assay [1] was 0.16. In addition, in assay [2], the “DR/DR LA” value is reported as 0.31. Also, the “DR/DR LNA” value in assay [3] is recorded as 0.34. Moreover, the “DR/DR OA” value in assay [4] is recorded as 0.26. Also, in assay [5], the “DR/DR AA” value was 0.28.

Values taken from patent publication US20060257938A1, “Method of screening for drugs that block ligand binding to a lipid binding protein” (priority 2005, published 2006).
